How the values were obtained:
[1] = target: T1, PfACT1 with PfPFN (P. falciparum actin-1/profilin) (Plasmodium falciparum, UniProt Q8I2J4+Q8I4X0); experiment: actin cosedimentation by ultracentrifugation, SDS-PAGE densitometry; assay type: biochemical; conditions: 4 uM PfACT1, 16 uM PfPFN, 25 uM compound, 50 mM KCl, 4 mM MgCl2, 1 mM EGTA, 0.5 mM ATP, 2.5% DMSO, pH 7.5, about 22 C, 16 h, binding site not located
T1 construct: gene ACT1; PfACT1 from S. frugiperda Sf21 cells (baculovirus)
Excerpt: actin cosedimentation by ultracentrifugation, SDS-PAGE densitometry on PfACT1 with PfPFN (P. falciparum actin-1/profilin) | S-W827, decreased the amount of actin in the pellet further to | All MMV291 analogues, S-MMV291, R-MMV291, S-W936, R-W936, S-W414, and S-W827, decreased the amount of actin

[2] = target: Plasmodium falciparum actin-1 (P. falciparum) (UniProt Q8I4X0)
Chain of Plasmodium falciparum actin-1 (P. falciparum) (Q8I4X0 whole entry): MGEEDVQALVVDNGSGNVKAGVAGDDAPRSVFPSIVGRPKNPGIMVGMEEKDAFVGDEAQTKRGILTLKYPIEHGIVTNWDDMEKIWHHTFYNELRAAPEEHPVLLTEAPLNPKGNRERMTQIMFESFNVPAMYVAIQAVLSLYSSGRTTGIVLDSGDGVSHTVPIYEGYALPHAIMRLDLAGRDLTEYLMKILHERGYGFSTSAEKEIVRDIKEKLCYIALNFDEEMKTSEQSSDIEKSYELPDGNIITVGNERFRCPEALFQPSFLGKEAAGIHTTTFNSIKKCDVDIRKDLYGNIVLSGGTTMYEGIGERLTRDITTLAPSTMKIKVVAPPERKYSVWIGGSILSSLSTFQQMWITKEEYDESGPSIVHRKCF

T1 sequence (Q8I4X0 whole entry, one chain of several): as the sequence (Q8I4X0 whole entry) above

relative amount of PfACT1 (4 uM) in the pellet fraction of the sedimentation assay under polymerizing conditions with PfPFN (16 uM), DMSO [2] [%] | relative amount of PfACT1 (4 uM) in the pellet fraction of the sedimentation assay with PfPFN (16 uM) and R-MMV291 (25 uM) [2] [%] | relative amount of PfACT1 (4 uM) in the pellet fraction of the sedimentation assay with PfPFN (16 uM) and R-W936 (25 uM) [2] [%] | relative amount of PfACT1 (4 uM) in the pellet fraction of the sedimentation assay with PfPFN (16 uM) and S-MMV291 (25 uM) [2] [%] | relative amount of PfACT1 (4 uM) in the pellet fraction of the sedimentation assay with PfPFN (16 uM) and S-W414 (25 uM) [2] [%] | relative amount of PfACT1 (4 uM) in the pellet fraction of the sedimentation assay with PfPFN (16 uM) and S-W827 (25 uM) [2] [%] | relative amount of PfACT1 (4 uM) in the pellet fraction of the sedimentation assay with PfPFN (16 uM) and S-W936 (25 uM) [2] [%] | Molecule | % PfACT1 in pellet at 25 uM [1] [%]
 |  |  |  |  |  |  | CC(C(=O)N1CCCC1)N1CCN(S(=O)(=O)c2ccc(C(C)(C)C)cc2)CC1 (racemic) [S-MMV291] | 11 ± 1
 |  |  |  |  |  |  | CC(C(=O)N1CCCC1)N1CCN(S(=O)(=O)c2ccc(C(C)(C)C)cc2)CC1 (racemic) [R-MMV291] | 15 ± 2
21 | 15 | 10 | 11 | 9 | 5 | 8 | Plasmodium falciparum profilin (natural protein) MAEEYSWDSYLNDRLLATNQVSGAGLASEEDGVVYACVAQGEESDPNFDKWSLFYKEDYDIEVEDENGTKTTKTINEGQTILVVFNEGYAPDGVWLGGTKYQFINIERDLEFEGYNFDVATCAKLKGGLHLVKVPGGNILVVLYDEEKEQDRGNSKIAALTFAKELAESSQ | 
